The target of the assay is recombinant extracellular domain of human insulin receptor (human). Briefly: SDS-PAGE under non-reducing and reducing conditions (Coomassie); 0.5 µg ECD-IR in Laemmli buffer with or without 2.5% 2-mercaptoethanol, 80 °C 10 min.

For one substance, stoichiometry N results are on record in publication PMC10873203.

What is called stoichiometry N is the number of molecules, sites or subunits per partner or assembly.

Consider “recombinant extracellular domain of human insulin receptor”, for which the stoichiometry N was determined as 2.
